Source: IntAct's records for PubMed 21556048

Molecular target: ep300_human EP300 (UniProt Q09472)
Sequence (Q09472 whole entry): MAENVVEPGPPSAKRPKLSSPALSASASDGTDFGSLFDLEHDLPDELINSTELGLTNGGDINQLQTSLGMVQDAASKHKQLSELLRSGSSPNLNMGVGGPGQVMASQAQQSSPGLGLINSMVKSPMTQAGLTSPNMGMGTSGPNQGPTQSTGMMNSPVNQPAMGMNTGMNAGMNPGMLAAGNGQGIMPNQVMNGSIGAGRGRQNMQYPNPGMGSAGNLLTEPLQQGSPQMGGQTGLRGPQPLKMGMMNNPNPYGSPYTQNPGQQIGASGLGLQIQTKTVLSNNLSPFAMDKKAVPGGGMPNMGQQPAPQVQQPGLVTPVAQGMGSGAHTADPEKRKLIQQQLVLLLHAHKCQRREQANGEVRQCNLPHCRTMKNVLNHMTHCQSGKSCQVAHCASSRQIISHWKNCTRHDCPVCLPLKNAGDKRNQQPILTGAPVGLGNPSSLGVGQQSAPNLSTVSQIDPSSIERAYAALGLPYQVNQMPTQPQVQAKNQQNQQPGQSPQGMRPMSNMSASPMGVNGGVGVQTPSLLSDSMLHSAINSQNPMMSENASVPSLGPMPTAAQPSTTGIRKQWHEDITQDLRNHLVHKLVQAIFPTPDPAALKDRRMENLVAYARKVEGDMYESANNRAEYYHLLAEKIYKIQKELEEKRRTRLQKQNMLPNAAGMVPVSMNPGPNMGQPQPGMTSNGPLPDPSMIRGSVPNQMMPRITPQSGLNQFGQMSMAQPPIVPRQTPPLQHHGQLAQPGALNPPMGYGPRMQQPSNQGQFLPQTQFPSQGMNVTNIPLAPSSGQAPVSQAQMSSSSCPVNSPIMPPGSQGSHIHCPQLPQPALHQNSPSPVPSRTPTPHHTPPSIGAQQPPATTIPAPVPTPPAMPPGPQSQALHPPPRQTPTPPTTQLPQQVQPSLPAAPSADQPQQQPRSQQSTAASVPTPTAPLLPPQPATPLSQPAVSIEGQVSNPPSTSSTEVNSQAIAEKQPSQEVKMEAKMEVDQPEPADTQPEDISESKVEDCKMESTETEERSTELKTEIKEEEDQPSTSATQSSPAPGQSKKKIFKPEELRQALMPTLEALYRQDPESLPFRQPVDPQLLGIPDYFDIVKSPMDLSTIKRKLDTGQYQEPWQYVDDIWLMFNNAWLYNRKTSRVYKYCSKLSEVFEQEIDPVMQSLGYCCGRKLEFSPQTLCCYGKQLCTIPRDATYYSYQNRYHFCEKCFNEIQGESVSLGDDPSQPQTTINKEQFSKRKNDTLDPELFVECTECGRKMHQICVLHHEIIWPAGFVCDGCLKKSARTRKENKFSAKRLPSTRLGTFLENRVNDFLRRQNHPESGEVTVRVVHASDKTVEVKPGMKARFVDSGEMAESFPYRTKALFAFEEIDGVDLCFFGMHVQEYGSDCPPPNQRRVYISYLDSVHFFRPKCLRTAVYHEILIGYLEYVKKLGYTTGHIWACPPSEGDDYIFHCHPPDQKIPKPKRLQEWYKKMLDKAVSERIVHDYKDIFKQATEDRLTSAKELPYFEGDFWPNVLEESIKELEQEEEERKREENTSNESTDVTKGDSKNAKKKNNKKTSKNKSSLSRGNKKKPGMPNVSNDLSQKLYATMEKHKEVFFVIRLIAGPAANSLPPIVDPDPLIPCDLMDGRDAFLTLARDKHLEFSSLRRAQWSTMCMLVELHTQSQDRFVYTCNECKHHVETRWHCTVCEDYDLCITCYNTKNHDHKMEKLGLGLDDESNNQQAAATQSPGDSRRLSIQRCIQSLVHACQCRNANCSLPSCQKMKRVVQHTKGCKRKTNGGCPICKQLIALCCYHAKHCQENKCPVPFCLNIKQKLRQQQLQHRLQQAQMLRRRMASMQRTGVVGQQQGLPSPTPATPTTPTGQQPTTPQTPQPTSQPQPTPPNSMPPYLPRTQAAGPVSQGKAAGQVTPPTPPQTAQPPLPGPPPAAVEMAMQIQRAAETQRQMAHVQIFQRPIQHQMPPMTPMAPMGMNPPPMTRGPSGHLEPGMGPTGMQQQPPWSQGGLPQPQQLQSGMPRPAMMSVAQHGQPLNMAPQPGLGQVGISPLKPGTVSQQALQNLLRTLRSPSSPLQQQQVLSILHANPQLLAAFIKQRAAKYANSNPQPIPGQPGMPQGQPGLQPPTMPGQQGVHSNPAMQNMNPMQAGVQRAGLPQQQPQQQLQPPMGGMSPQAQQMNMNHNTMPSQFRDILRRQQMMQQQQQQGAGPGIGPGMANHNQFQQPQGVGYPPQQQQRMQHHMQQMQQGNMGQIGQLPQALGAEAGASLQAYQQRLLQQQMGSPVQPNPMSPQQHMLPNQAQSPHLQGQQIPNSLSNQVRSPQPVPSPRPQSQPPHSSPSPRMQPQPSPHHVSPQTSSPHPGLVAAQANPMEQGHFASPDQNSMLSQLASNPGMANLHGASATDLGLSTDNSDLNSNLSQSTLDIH

Chain of Myocyte-specific enhancer factor 2C (Homo sapiens), Q06413 T80A (Q06413 whole entry T80A): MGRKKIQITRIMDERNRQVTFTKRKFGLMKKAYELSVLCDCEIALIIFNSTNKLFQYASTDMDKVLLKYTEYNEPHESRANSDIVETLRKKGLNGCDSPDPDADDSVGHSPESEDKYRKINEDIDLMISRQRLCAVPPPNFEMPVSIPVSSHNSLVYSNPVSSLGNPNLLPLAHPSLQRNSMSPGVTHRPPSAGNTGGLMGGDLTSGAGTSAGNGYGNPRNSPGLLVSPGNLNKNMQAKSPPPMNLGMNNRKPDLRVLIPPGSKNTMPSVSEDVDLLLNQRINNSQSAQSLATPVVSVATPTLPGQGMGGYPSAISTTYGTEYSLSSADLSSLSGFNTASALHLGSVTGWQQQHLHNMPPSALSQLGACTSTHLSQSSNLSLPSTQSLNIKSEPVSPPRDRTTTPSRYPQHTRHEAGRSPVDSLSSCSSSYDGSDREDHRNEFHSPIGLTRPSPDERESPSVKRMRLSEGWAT

effect of a mutation on the interaction: decreasing interaction
Substance: Myocyte-specific enhancer factor 2C (Homo sapiens), Q06413 T80A
